From US20230136228A1 (LAMKAP BIO ALPHA, published 2023)

T1: human CEACAM1 (human, UniProt P13688 35-526)
T1 construct: whole, on cells
T1 sequence (looked up): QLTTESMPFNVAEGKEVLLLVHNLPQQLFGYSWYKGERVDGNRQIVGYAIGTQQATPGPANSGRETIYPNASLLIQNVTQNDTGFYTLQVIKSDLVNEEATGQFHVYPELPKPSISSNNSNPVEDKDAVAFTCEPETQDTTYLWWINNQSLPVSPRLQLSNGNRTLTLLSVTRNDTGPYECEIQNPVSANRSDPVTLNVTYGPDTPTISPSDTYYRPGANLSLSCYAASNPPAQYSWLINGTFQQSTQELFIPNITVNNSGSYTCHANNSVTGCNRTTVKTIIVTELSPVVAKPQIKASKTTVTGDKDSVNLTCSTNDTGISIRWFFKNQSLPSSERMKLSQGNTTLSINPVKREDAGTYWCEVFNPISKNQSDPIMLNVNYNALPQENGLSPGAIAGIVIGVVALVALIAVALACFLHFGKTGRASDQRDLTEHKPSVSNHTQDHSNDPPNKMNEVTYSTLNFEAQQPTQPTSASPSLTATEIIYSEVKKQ

T2: human CEACAM5 (carcinoembryonic antigen, CEA), cell surface (human, UniProt P06731 35-685)
T2 construct: whole, on cells; also called CD66e
T2 sequence (looked up): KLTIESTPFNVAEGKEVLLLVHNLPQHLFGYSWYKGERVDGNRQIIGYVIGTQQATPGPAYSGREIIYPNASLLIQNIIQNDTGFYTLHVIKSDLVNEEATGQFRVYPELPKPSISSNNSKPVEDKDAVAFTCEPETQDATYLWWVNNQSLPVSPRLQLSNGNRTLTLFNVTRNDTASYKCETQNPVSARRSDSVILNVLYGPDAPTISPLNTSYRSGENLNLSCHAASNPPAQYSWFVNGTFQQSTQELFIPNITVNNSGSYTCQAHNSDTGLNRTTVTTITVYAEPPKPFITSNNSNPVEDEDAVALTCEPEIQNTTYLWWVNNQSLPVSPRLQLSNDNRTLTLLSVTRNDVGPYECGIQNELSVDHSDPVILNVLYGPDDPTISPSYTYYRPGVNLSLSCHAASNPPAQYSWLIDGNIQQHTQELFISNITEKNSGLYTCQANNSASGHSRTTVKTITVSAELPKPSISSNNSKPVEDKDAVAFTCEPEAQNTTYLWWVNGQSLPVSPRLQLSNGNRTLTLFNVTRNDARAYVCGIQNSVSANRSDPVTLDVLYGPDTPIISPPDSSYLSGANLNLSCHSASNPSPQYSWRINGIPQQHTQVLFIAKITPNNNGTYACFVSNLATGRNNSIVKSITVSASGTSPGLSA

T3: human CEACAM8 (human, UniProt P31997 35-320)
T3 construct: whole, on cells
T3 sequence (looked up): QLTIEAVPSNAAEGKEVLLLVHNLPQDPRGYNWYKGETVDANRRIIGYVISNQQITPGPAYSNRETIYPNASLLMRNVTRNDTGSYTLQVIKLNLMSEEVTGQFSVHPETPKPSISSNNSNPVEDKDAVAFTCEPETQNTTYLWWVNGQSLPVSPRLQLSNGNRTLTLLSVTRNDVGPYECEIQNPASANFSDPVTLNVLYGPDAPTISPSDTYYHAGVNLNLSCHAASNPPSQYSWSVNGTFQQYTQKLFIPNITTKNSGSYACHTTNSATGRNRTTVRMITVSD

T4: human CEACAM6 (human, UniProt P40199 35-320)
T4 construct: whole, on cells; also called CD66c
T4 sequence (looked up): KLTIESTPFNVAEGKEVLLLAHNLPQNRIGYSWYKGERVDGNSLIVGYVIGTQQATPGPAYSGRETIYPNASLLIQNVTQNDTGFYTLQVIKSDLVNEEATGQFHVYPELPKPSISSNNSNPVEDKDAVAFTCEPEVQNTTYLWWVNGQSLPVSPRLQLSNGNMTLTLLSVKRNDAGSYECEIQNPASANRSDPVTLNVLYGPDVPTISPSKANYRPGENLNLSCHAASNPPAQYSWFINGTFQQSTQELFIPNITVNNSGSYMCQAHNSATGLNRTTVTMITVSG


Columns and labels:
Test in all cases: flow cytometry, transfected PEAK cells, 10 mcg/ml
human CEACAM1 = target: T1, human CEACAM1
Source text: (§1) Vectors encoding the full-length version of human CEACAM 1, 3, 4, 5, 6, 7, 8, 18, 19, 20 and […] are used to express these proteins at the surface of PEAK and/or CHO cells as described in Example 1. Similarly, vectors encoding the full-length version of cyno CEACAM 5 and 6 are also used to express these proteins at the surface of PEAK and/or CHO cells. Non-transfected PEAK and/or CHO cells are used as negative control. Cells are harvested, counted, checked for viability and resuspended at 3×10⁶ cells/ml in FACS buffer (PBS 2% BSA, 0.1% NaN₃). 100 μl of the cell suspension are distributed in V-bottom 96-well plates (3×10⁵ cells/well). The supernatant is removed by centrifugation 3 minutes at 4° C., 1300 rpm and the cells incubated for 15 minutes at 4° C. with increasing concentrations of the antibody according to the invention. The antibodies carrying the anti-CEACAM5 arms to test are diluted in FACS buffer and the concentration range is 30 pM-500 nM. Cells are washed twice with cold FACS buffer and re-incubated for further 15 minutes at 4° C. with a compatible anti-human IgG secondary antibody. Cells are washed twice with cold FACS buffer and resuspended in 300 μl FACS buffer with 1:1500-diluted TOPRO-3 (Invitrogen). Fluorescence is measured using a FACSCalibur™ (BD Biosciences) or a Cytoflex Platform (Beckman Coulter). Dose-response binding curves are fitted using GraphPad Prism8 software. In the same manner, CEACAM1, CEACAM6 and other CEACAMs can be characterized.
(§2) For the bispecific antibodies AB17L3-1/N, AB71L3-1/N, AB72L3-1/N, AB73L3-1/N the MFI measured for binding to CEACAM5 transfected cells was found between 29000 and 41000 (Table 2). In contrast MFI found by using PEAK cells transfected with CEACAM 1,3,4,6,8 were found below 1000 with the only exception of a strong signal for AB72L3-1/N on CEACAM8 transfected cells. When MFI values obtained on transfected cells expressing any given CEACAM are divided by the values obtained on WT PEAK cells, “factors to PEAK WT” can be calculated (Table 3).

[1] = target: T2, human CEACAM5 (carcinoembryonic …)
Source text: as §1, §2

human CEACAM8 = target: T3, human CEACAM8
Source text: as §1, §2

human CEACAM6 = target: T4, human CEACAM6
Source text: as §1, §2

Row | Binder | MFI (human CEACAM1) | MFI [1] | MFI (human CEACAM8) | MFI (human CEACAM6)
1 | AB17L3-1/N (bispecific antibody, human IgG1, kappa, lambda, L234A L235A, Kappa-lambda body, lead optimization wave 1) heavy: EVQLVESGGGLVQPGGSLKLSCAASGFTFNTYAMNWVRQAPGKGLEWVGRIRSKYNNYATYYADSVKDRFTISRDDSKNTAYLQMNSLKTEDTAVYYCVRHGNFGNSYVSWFAYWGQGTLVTVSSASTKGPSVFPLAPSSKSTSGGTAALGCLVKDYFPEPVTVSWNSGALTSGVHTFPAVLQSSGLYSLSSVVTVPSSSLGTQTYICNVNHKPSNTKVDKRVEPKSCDKTHTCPPCPAPEAAGGPSVFLFPPKPKDTLMISRTPEVTCVVVDVSHEDPEVKFNWYVDGVEVHNAKTKPREEQYNSTYRVVSVLTVLHQDWLNGKEYKCKVSNKALAAPIEKTISKAKGQPREPQVYTLPPSREEMTKNQVSLTCLVKGFYPSDIAVEWESNGQPENNYKTTPPVLDSDGSFFLYSKLTVDKSRWQQGNVFSCSVMHEALHNHYTQKSLSLSPG light 1: EIVLTQSPATLSLSPGERATLSCRASQSVNSNLNWYQQKPGQAPRLLIYHGSNRATGIPARFSGSGSGTDFTLTISSLEPEDFAVYYCQQFDYFKEHNTFGQGTKVEIKRTVAAPSVFIFPPSDEQLKSGTASVVCLLNNFYPREAKVQWKVDNALQSGNSQESVTEQDSKDSTYSLSSTLTLSKADYEKHKVYACEVTHQGLSSPVTKSFNRGEC light 2: QTVVTQEPSLTVSPGGTVTLTCRSSTGAVTTSNYANWFQQKPGQAPRGLIGGTNKRAPGTPARFSGSLLGGKAALTLSGAQPEDEAEYYCALWYKQRWVFGGGTKLTVLGQPKAAPSVTLFPPSSEELQANKATLVCLISDFYPGAVTVAWKADSSPVKAGVETTTPSKQSNNKYAASSYLSLTPEQWKSHRSYSCQVTHEGSTVEKTVAPTECS | 652 MFI | 29200 MFI | 411 MFI | 541 MFI
2 | AB1L3-1/N (bispecific antibody, human IgG1, kappa, lambda, L234A L235A, Kappa-lambda body: common heavy chain (hIgG1 L234A+L235A+P329A), kappa CEA light chain AB1, lambda CD3 light chain L3-1 (1A4); also called parental KL bispecific antibody) heavy: EVQLVESGGGLVQPGGSLKLSCAASGFTFNTYAMNWVRQAPGKGLEWVGRIRSKYNNYATYYADSVKDRFTISRDDSKNTAYLQMNSLKTEDTAVYYCVRHGNFGNSYVSWFAYWGQGTLVTVSSASTKGPSVFPLAPSSKSTSGGTAALGCLVKDYFPEPVTVSWNSGALTSGVHTFPAVLQSSGLYSLSSVVTVPSSSLGTQTYICNVNHKPSNTKVDKRVEPKSCDKTHTCPPCPAPEAAGGPSVFLFPPKPKDTLMISRTPEVTCVVVDVSHEDPEVKFNWYVDGVEVHNAKTKPREEQYNSTYRVVSVLTVLHQDWLNGKEYKCKVSNKALAAPIEKTISKAKGQPREPQVYTLPPSREEMTKNQVSLTCLVKGFYPSDIAVEWESNGQPENNYKTTPPVLDSDGSFFLYSKLTVDKSRWQQGNVFSCSVMHEALHNHYTQKSLSLSPG light 1: EIVLTQSPATLSLSPGERATLSCRASQSVNSNLNWYQQKPGQAPRLLIYHGSNRATGIPARFSGSGSGTDFTLTISSLEPEDFAVYYCQQFDLRHEHNTFGQGTKVEIKRTVAAPSVFIFPPSDEQLKSGTASVVCLLNNFYPREAKVQWKVDNALQSGNSQESVTEQDSKDSTYSLSSTLTLSKADYEKHKVYACEVTHQGLSSPVTKSFNRGEC light 2: QTVVTQEPSLTVSPGGTVTLTCRSSTGAVTTSNYANWFQQKPGQAPRGLIGGTNKRAPGTPARFSGSLLGGKAALTLSGAQPEDEAEYYCALWYKQRWVFGGGTKLTVLGQPKAAPSVTLFPPSSEELQANKATLVCLISDFYPGAVTVAWKADSSPVKAGVETTTPSKQSNNKYAASSYLSLTPEQWKSHRSYSCQVTHEGSTVEKTVAPTECS | 441 MFI | 7750 MFI | 343 MFI | 373 MFI
3 | AB71L3-1/N (bispecific antibody, human IgG1, kappa, lambda, L234A L235A, Kappa-lambda body, lead optimization wave 2) heavy: EVQLVESGGGLVQPGGSLKLSCAASGFTFNTYAMNWVRQAPGKGLEWVGRIRSKYNNYATYYADSVKDRFTISRDDSKNTAYLQMNSLKTEDTAVYYCVRHGNFGNSYVSWFAYWGQGTLVTVSSASTKGPSVFPLAPSSKSTSGGTAALGCLVKDYFPEPVTVSWNSGALTSGVHTFPAVLQSSGLYSLSSVVTVPSSSLGTQTYICNVNHKPSNTKVDKRVEPKSCDKTHTCPPCPAPEAAGGPSVFLFPPKPKDTLMISRTPEVTCVVVDVSHEDPEVKFNWYVDGVEVHNAKTKPREEQYNSTYRVVSVLTVLHQDWLNGKEYKCKVSNKALAAPIEKTISKAKGQPREPQVYTLPPSREEMTKNQVSLTCLVKGFYPSDIAVEWESNGQPENNYKTTPPVLDSDGSFFLYSKLTVDKSRWQQGNVFSCSVMHEALHNHYTQKSLSLSPG light 1: EIVLTQSPATLSLSPGERATLSCRASQSVNSNLNWYQQKPGQAPRLLIYHSSNRPHGIPARFSGSGSGTDFTLTISSLEPEDFAVYYCQQFDYFKEHNTFGQGTKVEIKRTVAAPSVFIFPPSDEQLKSGTASVVCLLNNFYPREAKVQWKVDNALQSGNSQESVTEQDSKDSTYSLSSTLTLSKADYEKHKVYACEVTHQGLSSPVTKSFNRGEC light 2: QTVVTQEPSLTVSPGGTVTLTCRSSTGAVTTSNYANWFQQKPGQAPRGLIGGTNKRAPGTPARFSGSLLGGKAALTLSGAQPEDEAEYYCALWYKQRWVFGGGTKLTVLGQPKAAPSVTLFPPSSEELQANKATLVCLISDFYPGAVTVAWKADSSPVKAGVETTTPSKQSNNKYAASSYLSLTPEQWKSHRSYSCQVTHEGSTVEKTVAPTECS | 451 MFI | 35100 MFI | 391 MFI | 420 MFI
